Assay results reported in US20200155655A1 (GACHON UNIVERSITY OF INDUSTRY ACADEMIC COOPERATION …, published 2020).

B1: Atg14L, endogenous in MEF cell lysate (other, UniProt Q8CDJ3 1-492, looked up)
chain: MASPSGKGSWTPEAPGFGPRALARDLVDSVDDAEGLYVAVERCPLCNTTRRRLTCAKCVQSGDFVYFDGRDRERFIDKKERLSQLKNKQEEFQKEVLKAMEGKRLTDQLRWKIMSCKMRIEQLKQTICKGNEEMKKNSEGLLKNKEKNQKLYSRAQRHQEKKEKIQRHNRKLGDLVEKKTIDLKSHYERLARLRRSHILELTSIIFPIDEVKTSGRDPADVSSETDSAMTSSMVSKLAEARRTTYLSGRWVCDDHNGDTSISITGPWISLPNNGDYSAYYNWVEEKKTTQGPDMEHNNPAYTISAALGYATQLVNIVSHILDINLPKKLCNSEFCGENLSKQKLTRAVRKLNANILYLCSSQHVNLDQLQPLHTLRNLMHLVSPRSEHLGRSGPFEVRADLEESMEFVDPGVAGESDASGDERVSDEETDLGTDWENLPSPRFCDIPSQPVEVSQSQSTQVSPPIASSSAGGMISSAAASVTSWFKAYTGHR
notes: Endogenous protein; also called autophagic Vps34 complex
B2: Vps34 (vacuolar protein sorting 34), endogenous in MEF cell lysate (enzyme, UniProt Q6PF93 1-887, looked up)
chain: MGEAEKFHYIYSCDLDINVQLKIGSLEGKREQKSYKAVLEDPMLKFSGLYQETCSDLYVTCQVFAEGKPLALPVRTSYKAFSTRWNWNEWLKLPVKYPDLPRNAQVALTIWDVYGPGSAVPVGGTTVSLFGKYGMFRQGMHDLKVWPNVEADGSEPTRTPGRTSSTLSEDQMSRLAKLTKAHRQGHMVKVDWLDRLTFREIEMINESEKRSSNFMYLMVEFRCVKCDDKEYGIVYYEKDGDESSPILTSFELVKVPDPQMSMENLVESKHHKLARSLRSGPSDHDLKPNATTRDQLNIIVSYPPTKQLTYEEQDLVWKFRYYLTNQEKALTKFLKCVNWDLPQEAKQALELLGKWKPMDVEDSLELLSSHYTNPTVRRYAVARLRQADDEDLLMYLLQLVQALKYENFDDIKNGLEPTKKDSQTSASESLSNSGVSSGDIDSSQIITNPLPPVASPPPASKAKEVSDGENLEQDLCTFLISRACKNSTLANYLYWYVIVECEDQDTQQRDPKTHEMYLNVMRRFSQALLKGDKSVRVMRSLLAAQQTFVDRLVHLMKAVQRESGNRKKKNERLQALLGDNEKMNLSDVELIPLPLEPQVKIRGIIPETATLFKSALMPAQLFFKTEDGGKYPVIFKHGDDLRQDQLILQIISLMDKLLRKENLDLKLTPYKVLATSTKHGFMQFIQSVPVAEVLDTEGSIQNFFRKYAPSETGPYGISAEVMDTYVKSCAGYCVITYILGVGDRHLDNLLLTKTGKLFHIDFGYILGRDPKPLPPPMKLNKEMVEGMGGTQSEQYQEFRKQCYTAFLHLRRYSNLILNLFSLMVDANIPDIALEPDKTVKKVQDKFRLDLSDEEAVHYMQSLIDESVHALFAAVVEQIHKFAQYWRK
notes: Endogenous protein from MEF cells; also called Vps34 immune complex

Experiments:
[1] = target: T1, leucyl-tRNA synthetase (LRS), endogenous in MEF cell lysate (UniProt Q8BMJ2 1-1178); assay: immunoprecipitation with Atg14L antibody from MEF cell lysate, Western blot
T1 construct: Endogenous protein immunoprecipitated from MEF cells
T1 sequence (Q8BMJ2 whole entry): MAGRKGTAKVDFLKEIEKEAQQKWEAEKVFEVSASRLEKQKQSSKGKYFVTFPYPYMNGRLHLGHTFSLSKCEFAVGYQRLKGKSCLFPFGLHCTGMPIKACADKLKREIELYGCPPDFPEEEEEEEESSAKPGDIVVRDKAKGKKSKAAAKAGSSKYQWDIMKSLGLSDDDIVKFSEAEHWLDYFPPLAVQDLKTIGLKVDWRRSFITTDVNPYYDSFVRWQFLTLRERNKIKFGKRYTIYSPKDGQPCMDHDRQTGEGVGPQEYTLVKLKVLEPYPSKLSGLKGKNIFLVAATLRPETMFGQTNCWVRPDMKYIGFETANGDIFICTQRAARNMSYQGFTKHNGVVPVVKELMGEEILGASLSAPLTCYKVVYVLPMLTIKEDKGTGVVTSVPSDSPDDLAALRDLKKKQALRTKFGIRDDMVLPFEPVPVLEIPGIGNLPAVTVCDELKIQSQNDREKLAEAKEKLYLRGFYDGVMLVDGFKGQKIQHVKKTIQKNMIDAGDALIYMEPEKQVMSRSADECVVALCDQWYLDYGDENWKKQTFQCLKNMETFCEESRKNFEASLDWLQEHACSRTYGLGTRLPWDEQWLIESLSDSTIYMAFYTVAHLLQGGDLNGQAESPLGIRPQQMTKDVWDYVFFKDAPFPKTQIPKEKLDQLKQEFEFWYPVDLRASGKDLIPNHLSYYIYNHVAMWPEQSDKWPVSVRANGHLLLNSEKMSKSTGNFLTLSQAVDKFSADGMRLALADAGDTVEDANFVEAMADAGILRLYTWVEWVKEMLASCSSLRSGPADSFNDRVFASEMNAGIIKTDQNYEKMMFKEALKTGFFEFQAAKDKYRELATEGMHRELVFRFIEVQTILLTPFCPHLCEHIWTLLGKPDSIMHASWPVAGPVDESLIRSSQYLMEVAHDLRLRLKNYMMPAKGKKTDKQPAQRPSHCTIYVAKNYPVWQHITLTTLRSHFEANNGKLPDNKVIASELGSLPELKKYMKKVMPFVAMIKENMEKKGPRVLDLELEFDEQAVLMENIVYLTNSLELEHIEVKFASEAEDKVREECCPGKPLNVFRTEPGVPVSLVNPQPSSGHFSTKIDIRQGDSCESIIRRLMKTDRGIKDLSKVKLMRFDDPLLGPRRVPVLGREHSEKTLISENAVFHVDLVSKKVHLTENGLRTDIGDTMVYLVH

[2] = target: T1, leucyl-tRNA synthetase (LRS), …; assay: co-immunoprecipitation from MEF cell lysate, Western blot
Experimental: Particularly, MEF cells stimulated by amino acids by the same manner as described in Example <1-1> were washed with cold PBS. At this time, MEF cells unstimulated with amino acids were used as the control. The cells were lysed in mild lysis buffer (MLB: 10 mM Tris (pH 7.5), 2 mM EDTA, 100 mM NaCl, […], 50 mM NaF, 1 mM Na₃VO₄ and protease inhibitor cocktail (Sigma)). On the other hand, for immunoprecipitation of LRS, the cells were lysed in MIPT buffer. Then, the lysate was microcentrifuged at 13,000×g for 10 minutes to collect supernatant. An antibody was added to the supernatant at 4° C., followed by immunoprecipitation. Reaction was induced in the presence of protein G-agarose or M2-beads (Sigma). The beads were washed with lysis buffer 3 to 5 times, followed by Western blotting according to the conventional method. Immunoprecipitation for Vps34 was performed with protein G-agarose beads, and immunoprecipitation for Flag-LRS was performed with M2-beads.

Binder | binding result [1] | binding result [2]
B1 | no binding | –
B2 | – | binds
